{"source": "patent US20250188153A1", "key": {"[1]": {"molecular_target": "DS-CavEs2-IPDS (human metapneumovirus)", "test": "cryo-EM structure"}, "[2]": {"molecular_target": "hMPV A1 F (human metapneumovirus)", "test": "ELISA on coated recombinant protein, OD 405 nm"}, "[3]": {"molecular_target": "hMPV A1 F monomer (human metapneumovirus)", "test": "ELISA on coated recombinant protein, OD 405 nm"}, "[4]": {"molecular_target": "hMPV A1 F trimer (heated) (human metapneumovirus)", "test": "ELISA on coated recombinant protein, OD 405 nm"}, "[5]": {"molecular_target": "hMPV A2 F (human metapneumovirus)", "test": "ELISA on coated recombinant protein, OD 405 nm"}, "[6]": {"molecular_target": "hMPV B1 F (human metapneumovirus)", "test": "ELISA on coated recombinant protein, OD 405 nm"}, "[7]": {"molecular_target": "hMPV B2 F GCN4 (human metapneumovirus)", "test": "ELISA on coated recombinant protein, OD 405 nm"}, "[8]": {"molecular_target": "hMPV B2 F monomer (human metapneumovirus)", "test": "ELISA on coated recombinant protein, OD 405 nm"}, "[9]": {"molecular_target": "hMPV B2 F protein (his-tagged, not trypsin treated) (human metapneumovirus)", "test": "ELISA on coated recombinant protein, OD 405 nm"}, "[10]": {"molecular_target": "hMPV B2 F trimer (heated) (human metapneumovirus)", "test": "ELISA on coated recombinant protein, OD 405 nm"}, "[11]": {"molecular_target": "hMPV B2 F protein (his-tagged, not trypsin treated) (human metapneumovirus)", "test": "BLI epitope binning on hMPV B2 F; first mAb MPV314, second mAb MPE8"}, "[12]": {"molecular_target": "hMPV B2 F protein (his-tagged, not trypsin treated) (human metapneumovirus)", "test": "BLI epitope binning on hMPV B2 F; first mAb MPV414, second mAb MPE8"}, "[13]": {"molecular_target": "hMPV B2 F protein (his-tagged, not trypsin treated) (human metapneumovirus)", "test": "BLI epitope binning on hMPV B2 F; first mAb MPV477, second mAb MPE8"}, "[14]": {"molecular_target": "hMPV B2 F protein (his-tagged, not trypsin treated) (human metapneumovirus)", "test": "BLI epitope binning on hMPV B2 F; first mAb MPV481, second mAb MPE8"}, "[15]": {"molecular_target": "hMPV B2 F protein (his-tagged, not trypsin treated) (human metapneumovirus)", "test": "BLI epitope binning on hMPV B2 F; first mAb MPV483, second mAb MPE8"}, "[16]": {"molecular_target": "hMPV B2 F protein (his-tagged, not trypsin treated) (human metapneumovirus)", "test": "BLI epitope binning on hMPV B2 F; first mAb MPV487, second mAb MPE8"}, "[17]": {"molecular_target": "hMPV B2 F protein (his-tagged, not trypsin treated) (human metapneumovirus)", "test": "BLI epitope binning on hMPV B2 F; first mAb MPV488, second mAb MPE8"}, "[18]": {"molecular_target": "hMPV B2 F protein (his-tagged, not trypsin treated) (human metapneumovirus)", "test": "BLI epitope binning on hMPV B2 F; first mAb MPV503, second mAb MPE8"}}, "data": [{"binder": "MPV467 Fab (Fab, V domains shown) VH: EVQLVESGGGVVRPGTSLRVSCAAFDFNFRDYGMHWVRQAPGKGLEWVAGIWYDGSNKDYADSVKGRFTISRDNSQNTLYLQMNSLRVEDTAVYYCARDPRTHREGALSHFDSWGQGTLVTVSS VL: PNELTQDPAVSVALGQTVRITCQGDSLRNYFAGWYQQKPGQAPLLVLYGENIRPSGIPDRFSGSSSGNTVSLTITGAQAEDEADYYCNSRDNSGNHWVFGGGTRLTVL", "values": [{"measurement": "buried surface area on hMPV F (heavy chain)", "setting": "[1]", "value": 567, "unit": "Å^2"}, {"measurement": "buried surface area on hMPV F (light chain)", "setting": "[1]", "value": 322, "unit": "Å^2"}]}, {"binder": "MPV464 (antibody, V domains shown) VH: QVQLQESGPGLVKPSQTLSLTCTVSGGSVRGGGDYWSWIRRPPGKGLEWIGHIYNSGTTFYNPSLKSRVTISIDTSKNQFSLKLRSVTAADTAVYYCGRVGSRATGLPDWIDPWGQGTLVTVSS VL: SYELTQPPSVSVSPGQTATITCSGTNLGAKYSCWYQQKPGQSPVLVIFQDNKRASGIPARFSASTSGDTATLTISGTQVMDEADYFCQAWDSRTAVFGGGTTLTVL", "values": [{"measurement": "EC50", "setting": "[2]", "value": 0.28, "unit": "µg/mL"}, {"measurement": "EC50", "setting": "[3]", "value": 0.067, "unit": "µg/mL"}, {"measurement": "EC50", "setting": "[4]", "value": 0.24, "unit": "µg/mL"}, {"measurement": "EC50", "setting": "[5]", "value": 0.083, "unit": "µg/mL"}, {"measurement": "EC50", "setting": "[6]", "value": 0.086, "unit": "µg/mL"}, {"measurement": "EC50", "setting": "[7]", "value": 0.12, "unit": "µg/mL"}, {"measurement": "EC50", "setting": "[8]", "value": 0.098, "unit": "µg/mL"}, {"measurement": "EC50", "setting": "[9]", "value": 0.98, "unit": "µg/mL"}, {"measurement": "EC50", "setting": "[10]", "value": 0.29, "unit": "µg/mL"}]}, {"binder": "MPE8 (antibody, V domains shown) VH: EVQLVESGGGLVKPGGSLRLSCAASGFTFSSYSMNWVRQAPGKGLEWVSSISASSSYSDYADSAKGRFTISRDNAKTSLFLQMNSLRAEDTAIYFCARARATGYSSITPYFDIWGQGTLVTVSS VL: QSVVTQPPSVSGAPGQRVTISCTGSSSNIGAGYDVHWYQQLPGTAPKLLIYDNNNRPSGVPDRFSASKSGTSASLAITGLQAEDEADYYCQSYDRSLSGVFGTGTKVTVL", "values": [{"measurement": "% binding of the second mAb after the first mAb", "setting": "[11]", "value": 4, "unit": "%"}, {"measurement": "% binding of the second mAb after the first mAb", "setting": "[12]", "value": 2, "unit": "%"}, {"measurement": "% binding of the second mAb after the first mAb", "setting": "[13]", "value": 1, "unit": "%"}, {"measurement": "% binding of the second mAb after the first mAb", "setting": "[14]", "value": 72, "unit": "%"}, {"measurement": "% binding of the second mAb after the first mAb", "setting": "[15]", "value": 71, "unit": "%"}, {"measurement": "% binding of the second mAb after the first mAb", "setting": "[16]", "value": 4, "unit": "%"}, {"measurement": "% binding of the second mAb after the first mAb", "setting": "[17]", "value": 42, "unit": "%"}, {"measurement": "% binding of the second mAb after the first mAb", "setting": "[18]", "value": -1, "unit": "%"}]}, {"binder": "MPV483 (antibody, V domains shown) VH: EVQLVQSGAELKKPGSSVKVSCKASGDTFSNYAISWVRQAPGQGLEWMGGIIPIYNTANYAQKFQGRVTLTADESTSTAYMELSSLRSEDTAVYYCARDVRNNWSVLRGARYYYYGMDVWGQGTTVTVSS VL: DIVMTQTPFSLSASVGDRVTVTCRASQDISNSLAWFQQKPGKAPKSLIYAASSLQSGVPTRFSGGGSGTDFTLTISSLQPEDFATFYCLQYDSFPPTFGGGTKVEI", "values": [{"measurement": "EC50", "setting": "[2]", "value": 0.12, "unit": "µg/mL"}, {"measurement": "EC50", "setting": "[3]", "value": 0.16, "unit": "µg/mL"}, {"measurement": "EC50", "setting": "[4]", "value": 0.27, "unit": "µg/mL"}, {"measurement": "EC50", "setting": "[5]", "value": 0.07, "unit": "µg/mL"}, {"measurement": "EC50", "setting": "[6]", "value": 0.12, "unit": "µg/mL"}, {"measurement": "EC50", "setting": "[7]", "value": 0.14, "unit": "µg/mL"}, {"measurement": "EC50", "setting": "[8]", "value": 0.13, "unit": "µg/mL"}, {"measurement": "EC50", "setting": "[9]", "value": 0.22, "unit": "µg/mL"}, {"measurement": "EC50", "setting": "[10]", "value": 0.33, "unit": "µg/mL"}]}]}
